Key:
[1] = biological target: T1, hCD33 and hCD123 immobilized simultaneously on one switchSENSE chip (ratio 2:1, CD33:CD123) (human, UniProt P20138 18-259; P26951 19-305, limits assumed); experiment: switchSENSE; KD,2 (avidity, simultaneous binding of CD33 and CD123)
T1 construct: Not a complex: two separate ligands on one surface; used for avidity values and for off-rates; also called both ligands; both targets attached to the surface of the chip
Protocol: (§1) The designed ankyrin repeat proteins: DARPin® protein #20, DARPin® protein #21, DARPin® protein #22, DARPin® protein #27, DARPin® protein #40 and DARPin® protein #41 were tested in a concentration of 0.16 and 64 nM (in a buffer PE140 containing 10 mM Na2HPO4/NaH2PO4, 140 mM NaCl, 0.05% Tween20, 50 μM EDTA, 50 μM EGTA) for binding against two ligands hCD33 and hCD123, which both were immobilized simultaneously to DNA nanolevers, on the surface, at a pre-defined ratio (2:1, CD33:CD123) and 10% density (100:50) on an ADP-48-1-0 chip, where 100% density 1000 receptors/μm2 (preincubated R1-B48-CD123 and G1-A48-CD33 (100 nM) diluted in cNL-48 (dark)). Briefly the following steps were performed: [0724] Conjugation. Amine coupling of the two ligands (CD33 and CD123) to the DNA nanolever (A48, B48, respectively) and purification of the conjugates using the proFIRE® solution (Dynamic Biosensors GmbH) at 25° C. [0725] Evaluation of all the combined affinity and avidity of all different proteins to both ligands attached on the surface of an ADP chip using a DRX+ instrument (dynamic BIOSENSORS). [0726] Statistical analysis (repeatability from 2 to 5 times) including regeneration of the chip surface every concentration analyzed and long dissociation times and data were fitted using a bi-exponential global fit.

[2] = biological target: T1, hCD33 and hCD123 immobilized …; experiment: switchSENSE; KD,2 against KD,1
Protocol: as §1

[3] = biological target: T1, hCD33 and hCD123 immobilized …; experiment: switchSENSE, hCD33 and hCD123 co-immobilised 2:1; panel headed CD33, column KD2 (avidity, simultaneous binding of CD33 and CD123 per paragraph 696)
Protocol: as §1

[4] = biological target: T2, human CD3 on primary human pan-T cells (human, UniProt P07766 23-207; P09693 23-182; P04234 22-171; P20963 22-164); experiment: Mirrorball cytometry on primary human pan-T cells, 600 µM HSA
T2 construct: whole, on cells; Native complex on T cells isolated from PBMC; also called CD3 on Pan-T cells
Protocol: The determination of T cell binding was performed with primary human T cells using Mirrorball laser scanning imaging cytometry. Therefore, primary T cells were isolated from human peripheral blood mononuclear cells (PBMCs) using a pan-T cell purification kit (Miltenyi Biotec). A titration of DARPin® protein #27, DARPin® protein #28 and DARPin® protein #29 and DARPin® protein #30 were incubated with 50′000 pan-T cells per well in presence of 600 μM human serum albumin (to mimic physiological serum concentration) for 30 minutes at 4° C. Two benchmark T-cell engagers, AMG330 and flotetuzumab were applied as controls, targeting CD33 or CD123. After washing, CD3 binding was detected by 1:100-diluted anti-penta-His Alexa Fluor 488 antibody (Qiagen). After 30 min incubation at 4° C., cells were washed and resuspended in Cytofix fixation buffer (BD Biosciences) and counterstained by 5 μM DRAQ5 (Abcam) for 15 min at RT. Median of mean fluorescence intensities of Alexa Fluor 488 binding on far-red counterstained cells were measured by Mirrorball using Cellista software (SPT Labtech) and data was plotted using GraphPad Prism 8.

[5] = biological target: T3, biotinylated extracellular domain of human CD33 (SEQ ID NO: 87), Fc and Avi tagged (human, UniProt P20138 18-259, biotinylated with BirA-GST (Avi tag)); experiment: SPR (ProteOn XPR36), target on GLC chip, DARPin as analyte
T3 construct: also called hCD33; human target hCD33
T3 sequence (P20138 18-259 R69G): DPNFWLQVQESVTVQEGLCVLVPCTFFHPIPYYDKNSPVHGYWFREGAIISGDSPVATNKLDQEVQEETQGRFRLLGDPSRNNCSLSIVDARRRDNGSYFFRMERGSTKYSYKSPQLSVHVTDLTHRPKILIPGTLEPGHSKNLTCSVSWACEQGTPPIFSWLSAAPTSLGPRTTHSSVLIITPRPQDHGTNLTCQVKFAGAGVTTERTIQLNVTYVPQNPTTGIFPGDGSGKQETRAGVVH

T1 sequence (P20138 18-259 limits assumed, one chain of several): as the sequence (P20138 18-259 R69G) above, with G52R counted along it
T2 sequence (P07766 23-207, chain 1 of 4): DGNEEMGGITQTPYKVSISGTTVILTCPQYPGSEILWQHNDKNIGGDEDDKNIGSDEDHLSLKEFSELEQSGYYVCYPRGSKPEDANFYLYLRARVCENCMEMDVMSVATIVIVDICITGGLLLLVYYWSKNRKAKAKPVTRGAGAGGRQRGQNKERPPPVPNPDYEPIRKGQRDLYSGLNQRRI
T2 sequence (P09693 23-182, chain 2 of 4): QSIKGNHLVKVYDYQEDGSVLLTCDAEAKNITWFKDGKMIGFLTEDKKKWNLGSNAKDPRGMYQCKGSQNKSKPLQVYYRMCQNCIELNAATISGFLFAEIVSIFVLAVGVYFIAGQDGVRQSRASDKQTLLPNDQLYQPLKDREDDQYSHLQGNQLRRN
T2 sequence (P04234 22-171, chain 3 of 4): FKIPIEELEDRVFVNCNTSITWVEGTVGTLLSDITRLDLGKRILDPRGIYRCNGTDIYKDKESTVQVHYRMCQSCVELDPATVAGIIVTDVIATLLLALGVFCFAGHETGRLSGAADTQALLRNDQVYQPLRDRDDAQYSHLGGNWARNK
T2 sequence (P20963 22-164, chain 4 of 4): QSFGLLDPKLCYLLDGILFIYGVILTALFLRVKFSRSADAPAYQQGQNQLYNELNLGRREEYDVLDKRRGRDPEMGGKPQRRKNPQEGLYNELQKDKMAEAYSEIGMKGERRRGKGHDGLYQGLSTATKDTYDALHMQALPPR

Kd [1]: 0.2 to 0.3 nM
fold lower KD,2 (avidity) than the measured affinity [2]: ≥ 14 fold
Kd [3]: 0.17 nM
EC50 [4]: 6.52 nM
Kd [5]: 5.7 nM
B1: DARPin® protein #27 (designed binder)
chain: DLGKKLLEAALEGQLDEVRELLKAGADVNAKDQEGYTPLHLAAALGHLEIVEVLLKAGADVNAKDSIGRTPLHLAAYKGHLEIVEVLLKAGADVNAQDLLGETPADLAAEQGHQDIAEVLQKAAGSPTPTPTTPTPTPTTPTPTPTGSDLGVKLLLAASRGQLDEVRILLKAGADVNAKDIDEGYTPLHIAAYYGHLEIVEVLLKAGADVNAKDRYGKTPLHLAAISGHLEIVEVLLKAGADVNAQDDKGDTPADLAADYGHQDIAEVLQKAAGSPTPTPTTPTPTPTTPTPTPTGSDLGQKLLEAAWAGQDDEVRELLKAGADVNAKNSRGWTPLHTAAQTGHLEIFEVLLKAGADVNAKDDKGVTPLHLAAALGHLEIVEVLLKAGADVNAQDSWGTTPADLAAKYGHEDIAEVLQKAA
notes: CD123-CD33-CD3; also called αCD123-aCD33-αCD3_1; not shown: N-terminal His-tag

Source: patent publication US20240254229A1 (Molecular Partners, published 2024)
